Results as given in the supplement of paper PMC9732359.
± gives the uncertainty stated by the source.

Test: protein stability index of a GFP-peptide fusion (yeast GPS) (PSI 1-4); higher = more stable; sorted into four equal gates, so the index is relative within each strain
Conditions: san1∆
How it was run: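 The protein stability index of a peptide was calculated by multiplying its read frequency in each gate by that gate's number and adding the products. The peptides were tiled 17-residue stretches of yeast proteins, fused downstream of GFP on a Cherry-expressing plasmid and carried in yeast as a pooled library. Mid-log cultures in leucine-free medium were sorted into four equal gates by GFP/Cherry ratio, and each gate's plasmids were PCR-amplified and Illumina-sequenced.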

Row | Sequence | protein stability index
1 | LKLPLEINYAFSMDEEF [SIR3] | 2.73 ± 0.056

Same assay, conditions: ubr1∆

Row | Sequence | protein stability index
2 | KYKQLLLKDDTYQLCVR [RPN3] | 1.6 ± 0.18
3 | KYLDQVLDHQRAIPFRR [RPL17B] | 1.61 ± 0.066
4 | KYLIKYNVFRQHTSFQE [CSI1] | 1.19 ± 0.058
5 | KYLKKRKIGISIDDHPY [RPC31] | 1.74 ± 0.051
6 | KYLSDIMELPGVYSDDE [SRP68] | 3.36 ± 0.11
7 | KYPMYMQLEEELMKLDG [MED6] | 1.36 ± 0.06
8 | KYSAITSSIFQESFNSV [NUT1] | 2.48 ± 0.037
9 | KYYIVSSSKSMINDENY [SRB8] | 2.81 ± 0.04
10 | LAAMAVLESHWKQDLTK [PUP1] | 3.71 ± 0.18
11 | LAASEIGISIVGRFSTI [ECM29] | 2.3 ± 0.064
12 | LADSLDRCVDPEDPYFN [DIS3] | 3.4 ± 0.059
13 | LADWRIRPLSKPMTAYA [RRP6] | 2.98 ± 0.088
14 | LAEKVEKASRQQRKQKK [RPS24A] | 3.15 ± 0.2
15 | LAGKYIPNLTAKPFQVT [FAS1] | 2.63 ± 0.048
16 | LAINAKTITSGLKYALA [RPB2] | 2.79 ± 0.044
17 | LAKAVAATIGANFIFSP [RPT4] | 2.18 ± 0.069
18 | LALEIIVRPAKGVATTR [RRP46] | 2.25 ± 0.051
19 | LALPVFHIGYFKATIQI [RPO31] | 1.58 ± 0.044
20 | LALSSNISRDFQSYIVS [COR1] | 1.88 ± 0.047
21 | LAMVIIKEFVDDLKKDH [DSN1] | 2.85 ± 0.085
22 | LARASGNYVIIIGHNPD [RPL2A] | 2.68 ± 0.097
23 | LAVIMDNIGEIDESLFN [YCG1] | 3 ± 0.12
24 | LAYAVLGIALIALGEDI [RPN1] | 2.33 ± 0.06
25 | LCDNFNHFSLSYKDSGL [COR1] | 2.5 ± 0.066
26 | LCYMAPMTVKLVQLPKS [POP3] | 2.76 ± 0.065
27 | LDDWISIGYETELKKIT [IRR1] | 2.58 ± 0.053

Row | Sequence | protein stability index
28 | LDKNLIKLVKQNDELKF [RPC34] | 2.18 ± 0.1
29 | LDLMFDEVYVQNSKFLK [YJL039C/NUP192] | 2.87 ± 0.034
30 | LDNLKLKELRIDNSPQA [GRR1] | 2.94 ± 0.042
31 | LDPLEVHMLDFPNIAIR [PRP8] | 2.88 ± 0.043
32 | LDPSLRAPIYHSKFRSS [YML031W/NDC1] | 2.35 ± 0.072
33 | LDQLLVLEKKTRQASDL [RPN5] | 2.71 ± 0.097
34 | LDQVGVPKSIAKTLTYP [RPO21] | 2.99 ± 0.06
35 | LDRELLKPSMSVALHRH [RPT3] | 2.7 ± 0.16
36 | LDRIPMHSYFIFKDLVT [COB] | 1.67 ± 0.069
37 | LDTRKELWRKEQKLQTV [SMC3] | 2.99 ± 0.058
38 | LEEDSKKVNGTSYKKWS [PRP8] | 3.03 ± 0.092
39 | LEFSALSAADIVAQSEV [RPO31] | 3.17 ± 0.059
40 | LEGEELAFYLRRLTAKK [RPS8A] | 3.05 ± 0.099
41 | LEGNDIHALAAKLLQEN [FAS1] | 2.7 ± 0.059
42 | LEGSVSLPRFSKPVLIV [DIS3] | 3.02 ± 0.062
43 | LEHLHSTAFQNTPLSLP [COR1] | 2.65 ± 0.039
44 | LEIDNKDSVTECSKDMK [SIR4] | 3.63 ± 0.066
45 | LEKCEAEFKKRKIEAET [YCS4] | 2.98 ± 0.14
46 | LEKGEIELSDGSTFKVN [YJL039C/NUP192] | 2.95 ± 0.052
47 | LEKLVDHHPEGLSAREA [PRE10] | 2.62 ± 0.058
48 | LELAGMDALYEKIWFAI [SIR3] | 1.15 ± 0.052
49 | LELQVAKTFIDLESSSP [RPS7B] | 3.11 ± 0.064
50 | LELRNSVMDDILEMMPE [PRP8] | 3.37 ± 0.068
51 | LEQDLHFENAKVIDLDT [YIL149C/MLP2] | 3.13 ± 0.11
52 | LEQREQNENLPSDKSDS [SSN2] | 3.12 ± 0.056
53 | LERIVQIMQNPTHYKIP [RPS18A] | 2.74 ± 0.12

Row | Sequence | protein stability index
54 | LESADKQLEKRDYQRIN [POP4] | 3.18 ± 0.059
55 | LESKMSEVGDAFIFGLQ [SMC3] | 3.34 ± 0.052
56 | LEVFHHFFKWIEFIVYH [SRB8] | 1.06 ± 0.041
57 | LEWLENPSNTPDKDYLL [FAS1] | 3.29 ± 0.11
58 | LFGGRHYLFNTFTFTAH [SWP82] | 1.82 ± 0.024
59 | LFIGLFTRPLFVLLEIE [YCS4] | 1.61 ± 0.093
60 | LFKNYRFNFISKYFIID [YMR129W/POM152] | 1.42 ± 0.061
61 | LFLYKELVKAHLGERAA [RPC82] | 2.77 ± 0.11
62 | LFQVESAPKISSEIDRE [SIR4] | 2.42 ± 0.045
63 | LFQVEYSLEAIKLGSTA [PUP2] | 2.2 ± 0.053
64 | LFSLEKPNLNYFKSILL [SWI1] | 1.86 ± 0.051
65 | LFVCNKDPDVPLVLLQQ [POP3] | 2.27 ± 0.058
66 | LGIKKEKRIQYAKDILQ [RPB2] | 1.99 ± 0.041
67 | LGKGGAKRHRKILRDNI [HHF1] | 2.99 ± 0.14
68 | LGMGKAVEKTLALGCHF [POP7] | 2.38 ± 0.088
69 | LGRLNKLRKIAISKKNK [LIN1] | 1.47 ± 0.072
70 | LHGLRSFYDAIFFNIPL [YJL039C/NUP192] | 1.9 ± 0.034
71 | LHLAVGKKWFEVSQFLI [NAS6] | 1.51 ± 0.073
72 | LHPYNSRGLFEKKLMQD [YDL116W/NUP84] | 2.91 ± 0.13
73 | LHVLVAHKLKKSLDSIP [FAS2] | 1.68 ± 0.073
74 | LICPQYGTENKDGEDII [CSL4] | 3.28 ± 0.13
75 | LICQNNLNAFVDFSKYN [SRP72] | 2.54 ± 0.061
76 | LIEEEVEQDEGQCRTEL [YCS4] | 3.45 ± 0.12
77 | LIEKLQGFSKDTFELIK [YDL116W/NUP84] | 3.08 ± 0.07
78 | LIENGASVRIKDKFNQI [NAS6] | 3.27 ± 0.065
79 | LIFGTIASKMSLAPEAD [RPT3] | 2.65 ± 0.038

Row | Sequence | protein stability index
80 | LIGSIRFPTKFVTQFRH [RET1] | 1.31 ± 0.048
81 | LIIRCRVVRPKSLDAET [RPO21] | 2.51 ± 0.19
82 | LIKKAVSVRKHLERNRK [RPS13] | 3.28 ± 0.1
83 | LIKMSRSPPRPPSLKII [PRP28] | 1.86 ± 0.052
84 | LISDSNINNSSVAEKEE [SWI3] | 1.55 ± 0.11
85 | LISNAIYGKKTMVIQDE [ECM29] | 1.4 ± 0.14
86 | LISSSGPIKTPVGACAT [FAS2] | 2.17 ± 0.071
87 | LITLFNKGELETQPGCN [RPO31] | 2.94 ± 0.11
88 | LITTYSKLSKNISFYKL [SIN4] | 2.69 ± 0.072
89 | LKAKNQEEEGELEHLTK [DSN1] | 3.39 ± 0.047
90 | LKDIVGQTSRTVTPAPN [ITC1] | 2.95 ± 0.044
91 | LKDLMDLCDVVESKFTE [RPC19] | 3.26 ± 0.12
92 | LKDSKDFDESLKYLDDL [RPN9] | 2.86 ± 0.17
93 | LKFNHGNYSHLMEKNRI [REC8] | 2.52 ± 0.052
94 | LKGKINNEMKSLQRSKS [SMC1] | 3.44 ± 0.099
95 | LKHYNGYDINYISKIGE [SWI1] | 2.62 ± 0.053
96 | LKIFKIFCIDLEVFHHF [SRB8] | 2.53 ± 0.092
97 | LKIHQSHLVVPYCPIAS [YMR129W/POM152] | 1.28 ± 0.035
98 | LKIIHTSVWAGQKRLSQ [PRP8] | 1.48 ± 0.23
99 | LKKELKLLAKELEEQES [SMC2] | 3.31 ± 0.07
100 | LKKKVVDPFTRKEWFDI [RPS1B] | 2.88 ± 0.049
101 | LKKLQSDIESANNQEYD [SMC1] | 3.13 ± 0.076
102 | LKLPLEINYAFSMDEEF [SIR3] | 2.2 ± 0.048
